T1: full-length human MMRN2 with a His tag overexpressed in HEK293T cells (human, UniProt Q9H8L6 23-949)
T1 construct: Used as lysate of transfected HEK293T cells; also called hMMRN2; MMRN2 protein lysate; not shown: His tag of the pHL-Avitag3 vector
T1 sequence: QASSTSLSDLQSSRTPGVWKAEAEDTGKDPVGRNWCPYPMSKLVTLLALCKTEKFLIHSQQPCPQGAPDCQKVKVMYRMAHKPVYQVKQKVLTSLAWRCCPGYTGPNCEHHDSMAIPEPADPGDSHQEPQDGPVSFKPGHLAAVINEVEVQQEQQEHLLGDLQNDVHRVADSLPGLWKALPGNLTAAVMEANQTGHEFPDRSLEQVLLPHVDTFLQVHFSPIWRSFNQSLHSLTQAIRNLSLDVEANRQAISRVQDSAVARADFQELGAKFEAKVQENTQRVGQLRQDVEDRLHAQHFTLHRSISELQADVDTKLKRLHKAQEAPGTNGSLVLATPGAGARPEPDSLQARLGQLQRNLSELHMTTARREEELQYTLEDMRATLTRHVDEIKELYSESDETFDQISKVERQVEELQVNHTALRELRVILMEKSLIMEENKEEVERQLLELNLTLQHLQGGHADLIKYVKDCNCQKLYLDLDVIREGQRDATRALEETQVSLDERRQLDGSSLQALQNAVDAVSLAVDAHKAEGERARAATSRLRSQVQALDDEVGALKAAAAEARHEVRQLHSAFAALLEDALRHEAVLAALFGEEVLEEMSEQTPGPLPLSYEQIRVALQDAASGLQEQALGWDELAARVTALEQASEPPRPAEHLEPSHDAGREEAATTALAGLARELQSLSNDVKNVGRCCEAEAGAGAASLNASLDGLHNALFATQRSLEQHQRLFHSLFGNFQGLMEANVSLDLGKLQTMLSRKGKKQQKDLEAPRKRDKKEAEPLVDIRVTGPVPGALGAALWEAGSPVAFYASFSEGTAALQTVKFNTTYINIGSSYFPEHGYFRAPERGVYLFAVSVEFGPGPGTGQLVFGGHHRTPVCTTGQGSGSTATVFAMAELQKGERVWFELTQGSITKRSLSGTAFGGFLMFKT

T2: CLEC14A with regions 122-142 of CD141 (human, UniProt Q86T13 22-490)
T2 construct: also called 122-142 chimera; not shown: C-terminal GFP tag (all constructs have one)
T2 sequence: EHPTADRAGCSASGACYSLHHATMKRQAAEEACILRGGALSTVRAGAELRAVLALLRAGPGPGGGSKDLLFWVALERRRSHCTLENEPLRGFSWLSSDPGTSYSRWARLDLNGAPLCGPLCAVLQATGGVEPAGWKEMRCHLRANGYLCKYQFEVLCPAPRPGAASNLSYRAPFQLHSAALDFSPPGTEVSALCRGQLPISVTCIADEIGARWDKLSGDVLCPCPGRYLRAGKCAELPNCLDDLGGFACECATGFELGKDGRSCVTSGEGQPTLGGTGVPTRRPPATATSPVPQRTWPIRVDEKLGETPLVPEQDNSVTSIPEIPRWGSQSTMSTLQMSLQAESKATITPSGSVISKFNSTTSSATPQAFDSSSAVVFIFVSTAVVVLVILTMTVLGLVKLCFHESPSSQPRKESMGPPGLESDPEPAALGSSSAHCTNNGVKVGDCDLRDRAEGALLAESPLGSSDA

B1: CLEC14A with regions 97-108 of CD141 (receptor)
chain: EHPTADRAGCSASGACYSLHHATMKRQAAEEACILRGGALSTVRAGAELRAVLALLRAGPGPGGGSKDLLFWVALQLPPGCGDPKRLPLRGFSWLSSDPGGLESDTLQWVEEPQRSCTARRCAVLQATGGVEPAGWKEMRCHLRANGYLCKYQFEVLCPAPRPGAASNLSYRAPFQLHSAALDFSPPGTEVSALCRGQLPISVTCIADEIGARWDKLSGDVLCPCPGRYLRAGKCAELPNCLDDLGGFACECATGFELGKDGRSCVTSGEGQPTLGGTGVPTRRPPATATSPVPQRTWPIRVDEKLGETPLVPEQDNSVTSIPEIPRWGSQSTMSTLQMSLQAESKATITPSGSVISKFNSTTSSATPQAFDSSSAVVFIFVSTAVVVLVILTMTVLGLVKLCFHESPSSQPRKESMGPPGLESDPEPAALGSSSAHCTNNGVKVGDCDLRDRAEGALLAESPLGSSDA
notes: also called this mutant; not shown: C-terminal GFP tag (all constructs have one)

Legend:
[1] = molecular target: T1, full-length human MMRN2 with a His tag …; test: far Western blot of HEK293T lysates with MMRN2 protein lysate, non-reduced
From the text: FIG. 13—MMRN2 directly binds to either the C-type lectin or sushi domain of CLEC14A under non-reduced conditions. HEK293T cells were mock transfected or transfected with pCS2 vectors containing CLEC14A wild type (WT) or constructs with each major domain deleted (Δ) with an N-terminal HA tag. Upon far western blotting with MMRN2 protein lysate, binding can be seen in all mutants except those missing the C-type lectin domain (CTLD) or the sushi domain. An anti-HA blot was included to show all mutant proteins were expressed.

[2] = molecular target: B1; test: flow cytometry on HEK293T cells
[3] = molecular target: T3, wild type thrombomodulin with GFP tag expressed in HEK293T cells (UniProt P07204 19-575); test: flow cytometry on GFP-gated HEK293T cells
T3 construct: whole, on cells; also called WT CD141; CD141; not shown: C-terminal GFP tag
Procedure: (§1) FIG. 15—Binding of CRT antibodies was analysed using flow cytometry. All constructs have a C-terminus GFP tag so green cells were gated and stained red. All CRT antibodies bind to CLEC14A wild type with a C terminal GFP tag expressed in HEK293T cells. None of the CRT antibodies bind to wild type thrombomodulin with GFP tag expressed in HEK293T cells.
(§2) Binding of CRT antibodies was analysed using flow cytometry. All constructs have a C-terminus GFP tag so green cells were gated and stained red. All CRT antibodies bind WT CLEC14A and—as expected—none binds to WT CD141 (FIG. 15). In addition, none of the antibodies bound to Chimera 5 (except slight binding by CRT2) and all of the antibodies bind to Chimera 6 (except CRT2) (FIG. 15). This confirms that the binding site of the antibodies CRT1, 3, 4 and 5 and MMRN2 are within the C type lectin domain. It is possible that CRT2 binds on a region between the CTLD and sushi domain.

[4] = molecular target: Chimera 6 (CLEC14A with SUSHI of CD141) fused to GFP tag; test: flow cytometry on GFP-gated HEK293T cells
Procedure: as §1, §2

[5] = molecular target: T2, CLEC14A with regions 122-142 of CD141; test: flow cytometry; the filing says the chimera did not fold correctly
[6] = molecular target: T1, full-length human MMRN2 with a His tag …; test: method for MMRN2 not told

T3 sequence (P07204 19-575): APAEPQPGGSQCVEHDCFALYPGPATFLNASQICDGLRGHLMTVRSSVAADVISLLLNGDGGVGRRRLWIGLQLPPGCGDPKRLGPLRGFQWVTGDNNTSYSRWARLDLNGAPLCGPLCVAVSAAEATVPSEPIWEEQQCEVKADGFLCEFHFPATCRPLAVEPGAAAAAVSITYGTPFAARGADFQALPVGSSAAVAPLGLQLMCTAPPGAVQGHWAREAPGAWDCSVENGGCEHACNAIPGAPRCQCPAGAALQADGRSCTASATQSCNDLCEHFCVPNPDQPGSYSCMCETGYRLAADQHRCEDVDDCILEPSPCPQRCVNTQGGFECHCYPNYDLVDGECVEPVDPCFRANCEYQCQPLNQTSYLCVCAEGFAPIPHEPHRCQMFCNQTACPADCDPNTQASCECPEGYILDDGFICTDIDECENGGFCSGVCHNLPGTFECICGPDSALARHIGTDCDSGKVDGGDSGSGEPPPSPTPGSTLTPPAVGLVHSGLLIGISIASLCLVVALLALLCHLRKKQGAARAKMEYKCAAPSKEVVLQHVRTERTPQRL

binding result [1] | binding result [2] | binding result [3] | binding result [4] | binding result [5] | binding result [6] | Binder
binds |  |  |  |  |  | HA-CLEC14A (CLEC14A wild type with an N-terminal HA tag) expressed in HEK293T cells (receptor, also called CLEC14A wild type (WT); not shown: N-terminal HA tag) EHPTADRAGCSASGACYSLHHATMKRQAAEEACILRGGALSTVRAGAELRAVLALLRAGPGPGGGSKDLLFWVALERRRSHCTLENEPLRGFSWLSSDPGGLESDTLQWVEEPQRSCTARRCAVLQATGGVEPAGWKEMRCHLRANGYLCKYQFEVLCPAPRPGAASNLSYRAPFQLHSAALDFSPPGTEVSALCRGQLPISVTCIADEIGARWDKLSGDVLCPCPGRYLRAGKCAELPNCLDDLGGFACECATGFELGKDGRSCVTSGEGQPTLGGTGVPTRRPPATATSPVPQRTWPIRVDEKLGETPLVPEQDNSVTSIPEIPRWGSQSTMSTLQMSLQAESKATITPSGSVISKFNSTTSSATPQAFDSSSAVVFIFVSTAVVVLVILTMTVLGLVKLCFHESPSSQPRKESMGPPGLESDPEPAALGSSSAHCTNNGVKVGDCDLRDRAEGALLAESPLGSSDA
 | no binding | no binding | binds | no binding |  | CLEC14A monoclonal antibody C4 (antibody, V domains shown, Mouse monoclonal antibody raised against murine CLEC14A-Fc; The entries carry cloning residues (N-terminal MA on VH, C-terminal AA on VL); also called CRT4; clone C4) VH: QVQLQQSGAELMKPGASVKISCKATGYTFSSYWIEWVNRRPGHGLEWIGEILPGSGSTNYNEKFKGKATFTADTSSNTAYMQLSSLTSEDSAVYYCARGGDYDEEYYLMDYWGQGTTLTVSS VL: QIVLTQSPAIMSASPGEKVTMTCSASSSVSYMYWYQQKPGSSPRLLIYDTSNLASGVPVRFSGSGSGTSYSLTISRMEAEDAATYYCQQWSSYPLTFGAGTKLEIKR
 | no binding | no binding |  | no binding |  | CLEC14A monoclonal antibody C5 (antibody, V domains shown, CLEC14A monoclonal antibody; also called CRT5) VH: AEVQLQQSGAELMKPGASVKISCKATGYTFSSYWIEWVNQRPGHGLEWIGEILPGSGSTNYNEKFKGKATFTADTSSNTAYMQLSSLTSEDSAVYYCARGGDYDEEYYAMDYWGQGTSVTL VL: QIVLTQSPAIMSASPGEKVTMTCSASSSVSYMYWYQQKPGSSPRLLIYDTSNLASGVPVRFSGSGSGTSYSLTISRMEAEDGATYYCQQWSSYPLTFGAGTKLELKR
 |  |  |  |  | no binding | B1

Reference: patent US20180282418A1 (CANCER RESEARCH TECHNOLOGY, published 2018)
